Reference: the supplement of paper PMC10567573

B1: ATL3 (parent)
chain: QELEEEIKELYENFCKHNGSKNVF
B2: CHIT1 (parent)
chain: CSWKGATKQRIQDQKVPYIFRDNQ

Variants of: B1
Assay: protein stability index of a GFP-peptide fusion (GPS, HEK-293T) (PSI 1-6); higher = more stable
Details: c terminus: a fixed tail appended
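Note: lentivirally expressed fusions sorted by FACS into six bins by GFP to DsRed ratio, PSI derived from sequencing read proportions per bin multiplied by bin number.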

Protein stability index: each site, then its substitutions
K8: M 2.53; N 2.45; R 2.24; E 3.63; Q 3.01; F 2.48; H 2.86; G 3.67; C 3.01; S 3.37; D 3.41; A 2.96; L 2.24; I 2.36; P 4.37
E2: F 2.57; M 2.54; G 3.14; R 2.8; D 3.03; K 3.3; I 2.36; P 3.68; L 2.21; C 2.65; N 3.65; V 2.3; W 1.9; Y 2.47; S 2.97; T 3.43; A 2.38; H 2.62; Q 2.52
E6: N 3.29; H 3; P 3.28; Q 3.18; A 2.13; L 1.75; Y 2.37; D 3.59; V 2.08; T 2.86; G 3.09; M 2.19; F 1.93; S 2.85; I 1.78; R 2.77; K 2.48; C 2.32; W 1.75
E4: G 3.2; D 3.62; N 3.96; T 3.34; P 3.51; L 2.47; F 2.2; K 2.8; Q 1.56; Y 2.31; V 2.26; S 3.01; A 1.97; M 2.14; I 1.79; C 2.81; H 2.12; W 2.39; R 2.66
I7: A 4.55; D 4.81; R 4.17; S 4.09; T 4.24; C 4.23; Q 4.5; W 2.26; V 3.75; M 3.8; N 4.52; L 3.03; F 3.49; G 4.73; K 4.71; H 4.28; Y 4.21; P 4.5; E 4.94
Q1: R 2.31; D 3.13; T 3.19; I 1.42; N 3.39; C 2.69; V 2.08; W 2.03; F 2.09; K 2.31; E 3.67; P 2.83; Y 2.2; G 3.31; S 3.41; A 2.22; L 1.76; H 3.17; M 2.46
E5: W 1.73; M 2.81; H 2.42; K 2.21; S 2.17; Y 1.9; V 2.15; G 3.25; C 2.33; N 2.51; F 2.27; D 3.27; T 2.45; I 1.8; Q 1.81; P 3.85; L 2.23; A 1.96; R 2.02
L3: D 4.33; Y 2.85; S 4.62; A 4.15; Q 4.01; W 2.21; P 3.9; G 4.49; R 4.33; I 3.14; E 4.29; K 4.55; N 2.42; M 3.02; H 4; F 3.54; T 3.83; V 2.28; C 3.71

Variants of: B2
Assay: as above
Details: c terminus: a fixed tail appended

Protein stability index, by site and new letter:
F20: D 3.16; A 3.11; S 3.13; Y 2.74; N 2.93; I 2; Q 3.61; T 3.71; M 3.53; V 3.09; G 2.87; E 3.99; K 3.17; H 3.29; R 3.08; P 3.13; C 3.11; L 3.47
P17: E 2.3
